Patent publication US20230322927A1 (Regeneron, published 2023)

Key:
human EGFR on cells [1] = target: T1, human EGFR on cells (human, UniProt P00533 25-1210); test: cell-based or functional assay
hCD28.mFc (REGN2012) [2] = target: T2, hCD28.mFc (REGN2012) (human, UniProt P10747 19-152, limits assumed); test: SPR (Biacore T-200) at 25 C; hCD28.mFc captured on anti-mouse Fc, antibody injected
T2 construct: also called Human CD28-mFc; hCD28 with a C-terminal mouse Fc tag; not shown: C-terminal mouse Fc tag

human EGFR on cells [3] = target: T1, human EGFR on cells; test: flow cytometry titration on CASKI cells
human CD28 on cells = human CD28 on cells (human, UniProt P10747 19-220); test: cell-based or functional assay
human EGFR on cells [4] = target: T1, human EGFR on cells; test: flow cytometry titration on PEO1 cells
Protocol: (§1) After incubation, the cells were washed twice with cold PBS containing 1% filtered FBS and a Fluorophore-conjugated anti-human secondary antibody was added to the cells and incubated for an additional 30 minutes. Live/dead dye was added to Human and Cynomolgus T cells incubations. Wells containing no antibody or secondary only were used as a control.
(§2) After incubation with EGFR expressing cells, cells were washed, re-suspended in 200 μL cold PBS containing 1% filtered FBS and analyzed by flow cytometry on a BD FACS Canto II.

human EGFR on cells [5] = target: T1, human EGFR on cells; test: flow cytometry titration on A375 cells
Protocol: as §1, §2

[6] = target: T3, hEGFR(ECD).CPGG.MMH6 (REGN355) (human, UniProt P00533 25-647); test: SPR (Biacore 4000) at 25 C; antibody captured on anti-human Fc, hEGFR.mmH injected
T3 construct: Soluble extracellular domain with a myc-myc-hexahistidine tag; also called hEGFR.mmH; hEGFR.mmh
Protocol: Association was monitored for 5 minutes, and the dissociation of hEGFR.mmH in HBS-EP running buffer was monitored for 10 minutes. All of the binding kinetics experiments were performed at 25° C. Kinetic association (kₐ) and dissociation (kd) rate constants were determined by fitting the real-time sensorgrams to a 1:1 binding model using Scrubber 2.0c curve fitting software.

human EGFR on cells [7] = target: T1, human EGFR on cells; test: flow cytometry titration on 22RV1 cells
Protocol: as §1, §2

hCD28.mFc (REGN2012) [8] = target: T2, hCD28.mFc (REGN2012); test: SPR (Biacore) at 37 C; hCD28.mFc captured on anti-mFc, antibody injected
Protocol: SPR Kinetics Method: Kinetics binding parameters were determined via surface plasmon resonance (SPR) using a T-200 instrument and CM5 sensors (GE Healthcare). Double-referenced sensorgrams were globally fit to a 1:1 binding model using Scrubber (BioLogics Software). The dissociation rate constant (kd) was determined by fitting the change in the binding response during the dissociation phase, and the association rate constant (ka) was determined by fitting analyte binding at different concentrations. The KD was calculated from the ratio of the kd and ka. The dissociative half-life (t½) was calculated as In2/kd and converted to minutes.
CD28 Capture Method Specifics: An anti-mFc polyclonal Ab (GE) was coupled to a CM5 sensor surface using traditional EDC/NHS coupling chemistry. ˜30RUs of hCD28.mFc were captured on this surface. […] Dissociation was measured for 5 minutes. Surface was regenerated with a 40 second injection of 10 mM glycine, pH 1.5. Sensorgrams were processed and fit as described above.

hCD28.mFc (REGN2012) [9] = target: T2, hCD28.mFc (REGN2012); test: SPR (Biacore) at 25 C; hCD28.mFc captured on anti-mFc, antibody injected
[10] = target: T3, hEGFR(ECD).CPGG.MMH6 (REGN355); test: SPR (Biacore) at 25 C; antibody captured on anti-hFc, hEGFR.mmH injected
[11] = target: T3, hEGFR(ECD).CPGG.MMH6 (REGN355); test: SPR (Biacore) at 37 C; antibody captured on anti-hFc, hEGFR.mmH injected
Protocol: SPR Kinetics Method: Kinetics binding parameters were determined via surface plasmon resonance (SPR) using a T-200 instrument and CM5 sensors (GE Healthcare). Double-referenced sensorgrams were globally fit to a 1:1 binding model using Scrubber (BioLogics Software). The dissociation rate constant (kd) was determined by fitting the change in the binding response during the dissociation phase, and the association rate constant (ka) was determined by fitting analyte binding at different concentrations. The KD was calculated from the ratio of the kd and ka.
A six-point, three-fold dilution series of hEGFR.mmH starting at 30 nM was injected over this surface at a flow rate of 50 uL/min for 5 minutes. Surface was regenerated with a 10 second pulse of 20 mM H3PO4. Dissociation was measured for 10 minutes. Sensorgrams were processed and fit as described above.

IC50 [M] of inhibition of BaF3/hEGFR proliferation in presence of 0.5 nM hTGFβ (human EGFR on cells [1])	Inhibition [%] of BaF3/hEGFR proliferation in presence of 0.5 nM hEGF (human EGFR on cells [1])	Inhibition [%] of BaF3/hEGFR proliferation in presence of 0.5 nM hTGFβ (human EGFR on cells [1])	IC50 [M] of inhibition of BaF3/hEGFR proliferation in presence of 0.5 nM hEGF (human EGFR on cells [1])	EC50 [M] of increase of BaF3/hEGFR proliferation in presence of 0.5 nM hTGFβ (human EGFR on cells [1])	Kd (hCD28.mFc (REGN2012) [2])	koff (hCD28.mFc (REGN2012) [2])	kon (hCD28.mFc (REGN2012) [2])	t½ (hCD28.mFc (REGN2012) [2])	EC50 (human EGFR on cells [3])	IL-2 Release MAX (pg/mL), human CD3+ T cells + NCI-H292 cells, with 20 nM IsoC-1 (human CD28 on cells)	IL-2 Release MAX (pg/mL), human CD3+ T cells + NCI-H292 cells, with 20 nM cemiplimab (human CD28 on cells)	Proliferation MAX (CPM), human CD3+ T cells + NCI-H292 cells, with 20 nM IsoC-1 (human CD28 on cells)	Proliferation MAX (CPM), human CD3+ T cells + NCI-H292 cells, with 20 nM cemiplimab (human CD28 on cells)	EC50 (human EGFR on cells [4])	EC50 (human EGFR on cells [5])	Kd [6]	koff [6]	kon [6]	t½ [6]	Binder	further results
6.55e-09 M	93.2%	97.2%	–	–	–	–	–	–	–	–	–	–	–	–	–	–	–	–	–	mAb13006P2 (antibody, V domains shown) VH: QVQLQESGPGLVKPSETLSLTCTVSDDSIISYYWSWIRQPPGKGLEWIGYIYYSGRTNYNPSLKSRVTISVDTSKNQVSLKLNSVIAADTAVYYCARVSEDSYYHYGMDVWGQGTTVTVSS VL: not shown	–
7.79e-09 M	91.8%	95.9%	1.98e-08 M	–	–	–	–	–	–	–	–	–	–	–	–	–	–	–	–	mAb12999P2 (antibody, V domains shown) VH: QVQLQESGPGLVKPSETLSLTCTVSGDSIITFYWSWIRQPPGRGLEWIGYIYYSGITNYNPSLKSRVTISVDTSKNQVSLKLSSVTAADTAVYYCARVSEDSYFHYGMDVWGQGTTVTVSS VL: not shown	–
–	–	–	–	3.67e-09 M	10.3 nM	0.00268 s⁻¹	261000 M⁻¹ s⁻¹	4.3 min	24.4 nM	8.02 pg/mL	21.8 pg/mL	1860 CPM	2380 CPM	5.77 nM	4.64 nM	9.38 nM	0.00146 s⁻¹	156000 M⁻¹ s⁻¹	7.9 min	REGN6322 (bispecific antibody, human IgG4 S228P, kappa, EGFR arm from mAb35193P2, CD28 arm from mAb14226; also called bsAb6322; EGFRxCD28) heavy 1: EVQLVESGGGLVKPGGSLRLSCTASGFSFRDAWMTWVRQVPGKGLEWVGRIRNKIDGGTTDYNTPVKDRFTISRDDSKNTLYLQMNSLKTEDTAVYYCTTDIWNYVLFYYYGLDVWGQGTTVTVSSASTKGPSVFPLAPCSRSTSESTAALGCLVKDYFPEPVTVSWNSGALTSGVHTFPAVLQSSGLYSLSSVVTVPSSSLGTKTYTCNVDHKPSNTKVDKRVESKYGPPCPPCPAPPVAGPSVFLFPPKPKDTLMISRTPEVTCVVVDVSQEDPEVQFNWYVDGVEVHNAKTKPREEQFNSTYRVVSVLTVLHQDWLNGKEYKCKVSNKGLPSSIEKTISKAKGQPREPQVYTLPPSQEEMTKNQVSLTCLVKGFYPSDIAVEWESNGQPENNYKTTPPVLDSDGSFFLYSRLTVDKSRWQEGNVFSCSVMHEALHNHYTQKSLSLSLGK heavy 2: QVQLQESGPGLVKPSETLSLTCTVSGGSISSYYWSWIRQPPGKGLEWIGYIYYSGITHYNPSLKSRVTISVDTSKIQFSLKLSSVTAADTAVYYCARWGVRRDYYYYGMDVWGQGTTVTVSSASTKGPSVFPLAPCSRSTSESTAALGCLVKDYFPEPVTVSWNSGALTSGVHTFPAVLQSSGLYSLSSVVTVPSSSLGTKTYTCNVDHKPSNTKVDKRVESKYGPPCPPCPAPPVAGPSVFLFPPKPKDTLMISRTPEVTCVVVDVSQEDPEVQFNWYVDGVEVHNAKTKPREEQFNSTYRVVSVLTVLHQDWLNGKEYKCKVSNKGLPSSIEKTISKAKGQPREPQVYTLPPSQEEMTKNQVSLTCLVKGFYPSDIAVEWESNGQPENNYKTTPPVLDSDGSFFLYSRLTVDKSRWQEGNVFSCSVMHEALHNRFTQKSLSLSPGK light: not shown	EC50 (human EGFR on cells [7]): 9.58 nM
–	–	–	–	–	10.8 nM	0.00281 s⁻¹	259000 M⁻¹ s⁻¹	4.1 min	16.9 nM	–	–	–	–	–	5.42 nM	0.634 nM	4.63e-05 s⁻¹	73000 M⁻¹ s⁻¹	249 min	REGN6321 (bispecific antibody, human IgG4 S228P, kappa, also called bsAb6321; EGFRxCD28) heavy 1: EVQLVESGGGLVRPGGSLRLSCTASGFTFSTFIMFWVRQAPGKGLEYVSSISSNGGTIYYADSVKGRFTISRDNSKNTLYLQMGSLRAEDMAVYYCTRGGDFWSGYYPFDYWGQGTLVTVSSASTKGPSVFPLAPCSRSTSESTAALGCLVKDYFPEPVTVSWNSGALTSGVHTFPAVLQSSGLYSLSSVVTVPSSSLGTKTYTCNVDHKPSNTKVDKRVESKYGPPCPPCPAPPVAGPSVFLFPPKPKDTLMISRTPEVTCVVVDVSQEDPEVQFNWYVDGVEVHNAKTKPREEQFNSTYRVVSVLTVLHQDWLNGKEYKCKVSNKGLPSSIEKTISKAKGQPREPQVYTLPPSQEEMTKNQVSLTCLVKGFYPSDIAVEWESNGQPENNYKTTPPVLDSDGSFFLYSRLTVDKSRWQEGNVFSCSVMHEALHNHYTQKSLSLSLGK heavy 2: QVQLQESGPGLVKPSETLSLTCTVSGGSISSYYWSWIRQPPGKGLEWIGYIYYSGITHYNPSLKSRVTISVDTSKIQFSLKLSSVTAADTAVYYCARWGVRRDYYYYGMDVWGQGTTVTVSSASTKGPSVFPLAPCSRSTSESTAALGCLVKDYFPEPVTVSWNSGALTSGVHTFPAVLQSSGLYSLSSVVTVPSSSLGTKTYTCNVDHKPSNTKVDKRVESKYGPPCPPCPAPPVAGPSVFLFPPKPKDTLMISRTPEVTCVVVDVSQEDPEVQFNWYVDGVEVHNAKTKPREEQFNSTYRVVSVLTVLHQDWLNGKEYKCKVSNKGLPSSIEKTISKAKGQPREPQVYTLPPSQEEMTKNQVSLTCLVKGFYPSDIAVEWESNGQPENNYKTTPPVLDSDGSFFLYSRLTVDKSRWQEGNVFSCSVMHEALHNRFTQKSLSLSPGK light: not shown	–
–	-6.8%	11.2%	–	–	–	–	–	–	2.05 nM	12.7 pg/mL	27.2 pg/mL	1880 CPM	3250 CPM	1.22 nM	–	–	–	–	–	REGN7075 (bispecific antibody, human IgG4 S228P, kappa, EGFR arm from mAb12999P2, CD28 arm from mAb14226; also called bsAb7075; H4sH24623D) heavy 1: QVQLQESGPGLVKPSETLSLTCTVSGDSIITFYWSWIRQPPGRGLEWIGYIYYSGITNYNPSLKSRVTISVDTSKNQVSLKLSSVTAADTAVYYCARVSEDSYFHYGMDVWGQGTTVTVSSASTKGPSVFPLAPCSRSTSESTAALGCLVKDYFPEPVTVSWNSGALTSGVHTFPAVLQSSGLYSLSSVVTVPSSSLGTKTYTCNVDHKPSNTKVDKRVESKYGPPCPPCPAPPVAGPSVFLFPPKPKDTLMISRTPEVTCVVVDVSQEDPEVQFNWYVDGVEVHNAKTKPREEQFNSTYRVVSVLTVLHQDWLNGKEYKCKVSNKGLPSSIEKTISKAKGQPREPQVYTLPPSQEEMTKNQVSLTCLVKGFYPSDIAVEWESNGQPENNYKTTPPVLDSDGSFFLYSRLTVDKSRWQEGNVFSCSVMHEALHNHYTQKSLSLSLGK heavy 2: QVQLQESGPGLVKPSETLSLTCTVSGGSISSYYWSWIRQPPGKGLEWIGYIYYSGITHYNPSLKSRVTISVDTSKIQFSLKLSSVTAADTAVYYCARWGVRRDYYYYGMDVWGQGTTVTVSSASTKGPSVFPLAPCSRSTSESTAALGCLVKDYFPEPVTVSWNSGALTSGVHTFPAVLQSSGLYSLSSVVTVPSSSLGTKTYTCNVDHKPSNTKVDKRVESKYGPPCPPCPAPPVAGPSVFLFPPKPKDTLMISRTPEVTCVVVDVSQEDPEVQFNWYVDGVEVHNAKTKPREEQFNSTYRVVSVLTVLHQDWLNGKEYKCKVSNKGLPSSIEKTISKAKGQPREPQVYTLPPSQEEMTKNQVSLTCLVKGFYPSDIAVEWESNGQPENNYKTTPPVLDSDGSFFLYSRLTVDKSRWQEGNVFSCSVMHEALHNRFTQKSLSLSPGK light: not shown	Kd (hCD28.mFc (REGN2012) [8]): 51.7 nM; koff (hCD28.mFc (REGN2012) [8]): 0.0131 s⁻¹; kon (hCD28.mFc (REGN2012) [8]): 254000 M⁻¹ s⁻¹; t½ (hCD28.mFc (REGN2012) [8]): 0.9 min; Kd (hCD28.mFc (REGN2012) [9]): 10.7 nM; koff (hCD28.mFc (REGN2012) [9]): 0.00314 s⁻¹; kon (hCD28.mFc (REGN2012) [9]): 294000 M⁻¹ s⁻¹; t½ (hCD28.mFc (REGN2012) [9]): 3.7 min; Kd [10]: 2.8 nM; koff [10]: 0.000433 s⁻¹; kon [10]: 154000 M⁻¹ s⁻¹; t½ [10]: 26.7 min; Proliferation EC50 [M], human CD3+ T cells + NCI-H292 cells, with 20 nM IsoC-1 (human CD28 on cells): 3.92e-11 M; Proliferation EC50 [M], human CD3+ T cells + NCI-H292 cells, with 20 nM cemiplimab (human CD28 on cells): 2.16e-11 M; Kd [11]: 0.933 nM; koff [11]: 0.000412 s⁻¹; kon [11]: 441000 M⁻¹ s⁻¹
–	29.6%	–	2.55e-09 M	9.14e-10 M	–	–	–	–	–	–	–	–	–	–	–	–	–	–	–	mAb35193P2 (antibody, V domains shown) VH: EVQLVESGGGLVKPGGSLRLSCTASGFSFRDAWMTWVRQVPGKGLEWVGRIRNKIDGGTTDYNTPVKDRFTISRDDSKNTLYLQMNSLKTEDTAVYYCTTDIWNYVLFYYYGLDVWGQGTTVTVSS VL: not shown	–
